Laboratory results from the DeepSol protein solubility set.

Experiment: soluble on expression in E. coli; label from the status in PepcDB or PDB records

Sequence	soluble on expression in E. coli
MDTIWDADLQSAALKAEHHRLKTERLSLGYEGKSVCDALDLAIPHGKFSVIVGPNGCGKSTLLKSLCRLLKPLAGQVLLDGQNIHQLPTKVVAKQLGLLPQSALTPEGIKVVDLVSRGRYPHQGLFRQWSRVDERAVEEAMRATHVHELAQHSVDQLSGGQRQRVWVAMALAQQTPYLLLDEPTTYLDIAHQIELLDLFWRLNRQQGHTLVAVLHDLNQACRYADHLIVLQEGKIVAQGDPHSLVTPALVKQVFGIDCVVMPDPISCTPLIIPYSLKRG	not soluble
GPGSMRDLNKRQQKFVCGCLGITSWDGKDIPFYVETMPKINDVVWVKITQVNDTSAVVQLLEYGKREGIIPYTEVTRRRVRSMGKLIKVGRTEPAQVIRIDKDKGYIDLSKKLVTPNEAKACEAHFRQGNEVRSIVCHVAELCDIPAMDAMEMIAYPLYQREPGKHAWTWLYELNQTEDVERILGPLKLEKAISDCLMLTLKNAMRLKVLTLFAEVEITCFACDGVEAIRDVLILGRSYGEGSDPQIHLSVNIIGPPKYGIRARTDMKEEGIQRMKEAIEAMTAEIKKRGGQLKVVSPPQPHGDADEGKKGFDGEDDDDEDAD	soluble
MIGRRHPYYPYLEAALEAASLARGIHLYYLEKGFTEGTKSGPTDLVTQADREAEEAVKGLLLSRFPEAGFLGEEGGSEGGKALRFIVDPLDGTVNYAHGFPFFAVSIALEAESAIQMGVVMDTARGEVFYALRGEGAYLNGRPIRVTGRESLVGSLLATGFPYDVAKDPENLTYFERALRKGLLVRRPGAAALDLAYVAAGRLEGFWEVKLNPWDVAAGWLLVEEAGGRVTDLEGNPYRLGSRYILATNGRVHEALRRTLLGLD	soluble
AQARMGDSRDLCPHLDSIGEVTKEDLLLKSKGTCQSCGVTGPNLWACLQVACPYVGCGESFADHSTIHAQAKKHNLTVNLTTFRLWCYACEKEVFLEQRLAAPLLGSSSKFSEQDSPPPSHPLKAVPIAVADEGESESEDDDLKPRGLTGMKNLGNSCYMNAALQALSNCPPLTQFFLECGGLVRTDKKPALCKSYQKLVSEVWHKKRPSYVVPTSLSHGIKLVNPMFRGYAQQDTQEFLRCLMDQLHEELKEPVVATVALTEARDSDSSDTDEKREGDRSPSEDEFLSCDSSSDRGEGDGQGRGGGSSQAETELLIPDEAGRVISEKERMKDRKFSWGQQRTNSEQVDEDADVDTAMAALDQPAEAQPPSPRSSSPCRTPEPDNDAHLRSSSRPCSPVHHHEGHAKLSSSPPRASPVRMAPSYVLKKAQVLSAGSRRRKEQRYRSVISDIFDGSILSLVQCLTCDRVSTTVETFQDLSLPIPGKEDLAKLHSAIYQNVPAKPGACGDSYAAQGWLAFIVEYIRRFVVSCTPSWFWGPVVTLEDCLAAFFAADELKGDNMYSCERCKKLRNGVKYCKVLRLPEILCIHLKRFRHEVMYSFKINSHVSFPLEGLDLRPFLAKECTSQITTYDLLSVICHHGTAGSGHYIAYCQNVINGQWYEFDDQYVTEVHETVVQNAEGYVLFYRKSSEEAMRERQQVVSLAAMREPSLLRFYVSREWLNKFNTFAEPGPITNQTFLCSHGGIPPHKYHYIDDLVVILPQNVWEHLYNRFGGGPAVNHLYVCSICQVEIEALAKRRRIEIDTFIKLNKAFQAEESPGVIYCISMQWFREWEAFVKGKDNEPPGPIDNSRIAQVKGSGHVQLKQGADYGQISEETWTYLNSLYGGGPEIAIRQSVAQPLGPENLHGEQKIEAETRAV	soluble
MSLTGREKNPSLTAKELEGGLLIVDEMSMVDTWLANTLLKAIPTNMQVIFVGDKDQLPSVGPGQVLHDLLQINEIPKCELNEIYRQGDGSSIIPLAHEIKEGKLPADFQKNQKDRSFFASDIGHIEEYIRQIVTKAKAKGFTPQDIQVLAPMYRGAAGIDALNKMMQEIFNPNDGKKKEVKWNDTVYRIGDKVLQLVNTPELNVFNGDMGEIVGITLAKDSEDKVDELVLQFDNNEVTYKRNEWNKITLSYCCSIHKAQGSEFRMVLLPMVHQYSRMLQRNLLYTAVTRSKELLILLGEVSAFETCVKNESASRMTMLKERIVNAEQEGHHHHHH	not soluble
MPMAKPLKYPVSALVVLYSGDGGILLIERTHPEGFWQSVTGSLEPGETVAQTARREVWEETGILLADGQLQDWHDSTVYEIYHHWRHRYPKGVFENREHLFSAEIPRDTPIALQPEEHVSYGWFDMEEAAEKVFSPSNRRAILELGRFLGKR	not soluble
MEKDNICYKTYVEILERELVPAMGCTEPIALAYCSAKARSVLGVLPDKVLVEVSGNIVKNVKSVIVPNSGGRRGIEAAAAVGILAGREDLELEVLSKVTDEDIAGLGAYMEKVEITVAPLDTPYLLDMAVTAKKDGSRARVRIAQEHTNIIEIEKDGKILFEKQAGEEEDCDAPDYSLLTIEKIYDFADTADLEDVKAVLDRQIAYNTAIAEEGLRGDYGANIGRVLMEEYGDRIENRAKAMAAAGSDARMNGCDLPVIINSGSGNQGMTASLPVIEYAKELKCSREKLYRALLLSNLVTLHQKTGIGRLSAYCGAVSAGAGAGAGIAYLEGGDLKVVAHTLVNALAITSGIVCDGAKASCAAKIAVAVDTGILGYKMYKKGQQFYGGDGLVAKGVENTIRNIGRLGKEGMKETDKEIIRIMTE	not soluble
FLPMSREEMDQLGWDACDFILVCGDAYIDHPSFVSGIIGRVLEAQGFRVGIIAQPDWTNVESFRVLGKPTIAWGVTAGNMDSMINRYTADRKIRSDDAYSPNNEPNKRPDRAATVYCQRCREAFPDVPVLLGGIEGSLRRIAHYDYWSDKVRRSILMDSKADLLMYGNGERAIIDVMHRLAKGEKIHEITDVRGTAFIINKHNKASKAQFIEIASNDVDTVGRVDPIINPYVMTEDIDGCEVEKEKGNSLAQYQNFQKEIVSKPVVREGDQLDKDTQIIQLKPVPSKAIKHKLPPRELAVIRLPSFEEVADDHVLYAHANRILHLETNPGNARALVQRHGERDVWINPPPIPLTTEEMDYVFDLPYARLPHSAYGDARFPAFDMIKFS	not soluble
MGSDKIHHHHHHMLVRQEALSSKMSIKDLPSSSPLPNANLVLVFGSVRRFSDGKLPTQLKERYPAAQIVGCTTSGEIGPHGVSDDSLQITAIAWDNTMQRVTYARANNMQTSAETAINLAKQLKSDSLRTILVFSDGLHINGSELLQGFQSVLGDIPIVGGMAGDNAEFSRTLQLLNDSIEEGLVVAIGLYGDKLITASGALGGWKPYGPPRKITRSEKNVVYEMDGKPALPLYRMYIGEQNAKALPGSGLRFPFAVIEEGKREVEKVRTLLAIDPEENSLTFAGNVEEGETVRLCQTTHDRLVEGAGGAARLVTANLDTSQPGLALCVSCVGRKLVMAEQIADEIQAVQQTLGSQTALTGFYSYGEFCPRPNTTDNVLHNQTMTIGYLSEAL	not soluble
MPEAWAPVRPETPPAPELLYWNAELADELGLDAGQTDKGELARLFSGADIPEGAQPIAQAYAGHQFGGLSPSLGDGRALLLGEVTDRNGQRRDIALKGSGQTPFSRRGDGKAAVGPMLRELIVGEAMQALGIPTTRALAVTTTGEPVYRERPLPGAVLTRVAASHLRVGTFQYFAIRGETAMLNKLADYTIARHYPQLAGRDGRHLALLAAVAERQAALIARWMHAGFIHGVMNTDNMALSGETIDYGPCAFMDAHYPGTVFSSIDHQGRYAYGNQPAIAQWNLARFAETLLPLISPDDPAAAVPAATEIVEGFEDLYQRRWLEQARRKLGLEGERDDDQALADDWLMLLAAHGVDHTLAWRYLADEAEGKGERLAALFPSPDALTPWLKQWHARHVPRTRRPPDIAAAMRRESPLYIPRNHLVEEALDAASERGDMGPTLKLLEALHQPFAERDGLDRYAQPAAAELAEGYRTFCGTLEHHHHHH	not soluble
MGSDKIHHHHHHMKILIIPNRGRSYNAVRPEAECYIALAEAGHDVTVISSGTNAYIDRYKKSKVKFIELKTLKKHSWAVIKQIRQYIKANNIDIVYATESKGIPNAAFACIGTKAKLVVYRGTSGGMYKTDPSNYLCMLHPRINGVIGVSSAVSANVREKVRGAIKANVETIYKGHDLSWYKEDAADLVSLGSNKKYFNILCVGSPRHHKGTHILLDAAKELNDIEDLRIILVGDNLDKQAFIDQINNSGMSEHILQPGFRSDVPAIAKACDLLILPSLSKEGLTRTVLESLSNGTPVVSSANDGVVETIENGFNGYLVPIGDVQAMADKIRMLYNDRVLLEKLSNHAQDIIKDKMSHHKTVTHMEAYFEKIIAQN	not soluble
MGSDKIHHHHHHMLLYIHGFNSSPFSDKAVITAKYMAQHHPSVIFHQPQLPNTPKAAMALLTTYVEAAIDAKEPLAYIGSSLGGYFASYLAETYGGKAVLVNPAVKPFELFDEFMGPQFNPYTEQHYLVVPEHKREVAEFNTAVIRNPDRFLVLLQTGDEVLDYREAVNKYHHCQLRIEAGGDHSFVGYESHLQTVSQFLHLP	not soluble
MGSDKIHHHHHHMVLNINSFYKNCRGEFMRAVFIYHKNNQRMEKFYKNLLNEPDFCRICDDCYNCRGNWTFKNNVKNIVIEEVYEEFVDNPYDYLPELPEGDICIAQLHEDLLYELPLLLKEKGYKALIVPSETPHDLSLALRRDLKRVCSNYNIEFENPKPFCSLEKKEGNEYINKFIDYFKIGKPELEIEVENGLIKDVKVKISAPCGETYYIAKRLKGKAIDDLKEEIANAHHNYPCLASMEMDKELGDTILHKAGYIAFEVVEKALKK	not soluble
MSLKNILIIGANGFTGRRILNDLSVNPIYHVTGCSLRDDICPGKDYRFVRTDIRDENEVRKLFKECRPDIVINTSALSVPDYCETHHAEAEATNVTAVETIAHVCEQYGSRFIHLSTDFVFDGKSTRLYKEEDEAIPVNYYGVTKLKAEKIIASICSNYAIVRVVVVYGKALPGQHGNILQLVANRLRNGETIRVVSDQWRTPTFVGDISVGVEKLMFHTANGIYHICGSECLTIAEIAYRVADFLKLDRSLIEPVTTEEMKEVTPRPRFSGLSIEKAKAEIGYTPRTLEEGMEASEGHHHHHH	soluble
MGSDKIHHHHHHMFDWEDLRHFSAFSSAGSLSAAAKTLGVDHATVARRIASLEASLQLKLVDRRPRAYALTHEGQRVAELAEQMAMSSFALEHFASAGQQTVEGEVVLSAPPALLGSIIARRLGELYQRYPQLRLKLVGSKSKASLVRREADISIALARPTEPTLVVSLLGHLDYRLYASPGYLASATVRRYIGYDESQARSPQQQWLNLQAGQQPFALHSNDLRIQAQACAGGIGIACLPAFMAQEHGLKEAGSAQQTMSIEIWLAVHEDVRATPRIKAVTDFLQQQVRPLLRL	not soluble
MGHHHHHHSHRKRPLLAPLCNGLINSYEDKSNDFVCPICFDMIEEAYMTKCGHSFCYKCIHQSLEDNNRCPKCNYVVDNIDHLYPNFLVNELILKQKQRFEEKRFKLDHSVSSTNGHRWQIFQDWLGTDQDNLDLANVNLMLELLVQKKKQLEAESHAAQLQILMEFLKVARRNKREQLEQIQKELSVLEEDIKRVEEMSGLYSPVSED	not soluble
MEKHEEENGLCKAESVDGSLDVWSCQNSDSSSADHLVVMVHGILGSTDDWKFGAEQFVKKMPDKVFVHCSEKNVSALTLDGVDVMGERLAAEVLDIIQRKPNICKISFVAHSLGGLAARYAIGKLYKPANQEDVKDSVADSSQETPKGTICGLEAMNFITVATPHLGSMGNKQVPFLFGFSSIEKVAGLIIHWIFKRTGRHLFLKDEEEGKPPLLRRMVEDTDDCHFISALRAFKRRVAYSNVGHDHVVGWKTASIRRDSELPKWEDSLNEKYPHIVYEELCKACDMEDIPEGENHSDDIEEEMIKGLSSVSWEKVDVSFHSSRQRFAAHSVIQVKNEDMHIEGADVIEHIIDHFHA	soluble
